# From patent publication US20220363781A1 (SICHUAN KELUN BIOTECH BIOPHARMACEUTICAL, published 2022)
# T1: monkey TSLP-His (cynomolgus monkey, Macaca fascicularis) (cynomolgus monkey (Macaca fascicularis), UniProt A0A7N9CAT7 29-159)
# T1 construct: Whole entry XP_005557555.1 is named; also called cTSLP
# T1 sequence: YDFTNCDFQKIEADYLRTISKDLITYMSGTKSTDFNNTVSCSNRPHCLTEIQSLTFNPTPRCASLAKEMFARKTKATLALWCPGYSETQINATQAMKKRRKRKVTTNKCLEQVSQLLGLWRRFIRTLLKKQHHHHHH
# Legend:
# human TSLP-His [1] = target: T2, human TSLP-His (human, UniProt Q969D9 29-159); test: ELISA, human TSLP-His coated at 1 µg/mL, hybridoma supernatant, anti-rat IgG-HRP
# T2 construct: Whole entry NP_149024.1 is named; Expressed in E. coli or HEK293F; also called hTSLP; hTSLP-His
# Method: The 96-well plates were washed with PBST and blocked with a blocking solution (PBS+2% BSA) at 37° C. for 2 hours. The hybridomas supernatant, or the same volume of blocking solution were added to plates, and incubated in an incubator at 37° C. for 2 hours. The 96-well plates were added with goat anti-rat IgG-HRP, and incubated in an incubator at 37° C. for 1 hour, then washed and read OD at 450 nm.
# human TSLP-His [2] = target: T2, human TSLP-His; test: competitive ELISA, hIL7Rα-hTSLPR-hFc coated, hTSLP-His plus hybridoma supernatant, anti-His-HRP
# Method: (§1) The soluble hIL7Rα-hTSLPR-hFc protein was diluted in 1×CBS coating buffer, then added to 96-well plates, and incubated overnight at CC. The 96-well plate was washed with PBST and blocked with a blocking solution (PBS+2% BSA) at 37° C. for 2 hours. […] The 96-well plates were added with mouse anti-His-HRP, and incubated in an incubator at 37° C. for 1 hour, then washed and read OD at 450 nm.
# human TSLP-His [3] = target: T2, human TSLP-His; test: competitive ELISA, hIL7Rα-hTSLPR-hFc coated, hTSLP-His plus titrated antibody, anti-His-HRP
# Method: as §1
# Competitive ELISA was applied to assay the activity of chimeric antibodies of blocking the binding of chimeric receptor hIL7Rα-hTSLPR-hFc to the antigen.
# human TSLP-His [4] = target: T2, human TSLP-His; test: ELISA, human TSLP-His coated, antibody titrated, anti-rat Fc-HRP
# Method: (§2) The specific method was briefed as follows: coating human or monkey TSLP-His antigen into 96-well plates, after overnight at 4° C., adding antibodies diluted with different concentration gradients, respectively, after incubating for 2 hours, adding goat anti-rat Fc-HRP secondary antibody, and after incubating for 1 hour, reading the absorption value at 450 nm wavelength by microplate reader.
# [5] = target: T1, monkey TSLP-His (cynomolgus monkey, …); test: ELISA, monkey TSLP-His coated, antibody titrated, anti-rat Fc-HRP
# Method: as §2
# human TSLP-His [6] = target: T2, human TSLP-His; test: cell-based or functional assay
# [7] = target: T1, monkey TSLP-His (cynomolgus monkey, …); test: ELISA, monkey TSLP-His coated at 1 µg/mL, hybridoma supernatant, anti-rat IgG-HRP
# Method: The monkey TSLP-His protein was diluted to 1 μg/mL in CBS coating buffer, then added to 96-well plates, and incubated overnight at 4° C. The 96-well plates were washed with PBST and blocked with a blocking solution (PBS+2% BSA) at 37° C. for 2 hours. The hybridomas supernatant, or the same volume of blocking solution were added to plates, and incubated in an incubator at 37° C. for 2 hours. The 96-well plates were added with goat anti-rat IgG-HRP, and incubated in an incubator at 37° C. for 1 hour, then washed and read OD at 450 nm.
# human TSLP-His [8] = target: T2, human TSLP-His; test: BLI (Fortebio), antibody on ProA sensor, human TSLP 1.5625-100 nM, 1:1 model
# From the text: (§3) The dynamic affinity of anti-TSLP fully human chimeric antibody for TSLP was detected by Fortebio, a commonly used dynamic affinity detection device. […] Date analysis 11.0 version (Pall) with 1:1 model was used to determine the association rate constant (Ka) and the dissociation rate constant (Kd), which were then used to calculate the dissociation equilibrium constant (KD).
# human TSLP-His [9] = target: T2, human TSLP-His; test: cell-based or functional assay; remark: listed apart in the source
# [10] = target: T1, monkey TSLP-His (cynomolgus monkey, …); test: ELISA, monkey TSLP-His coated, antibody titrated, anti-human Fc-HRP
# human TSLP-His [11] = target: T2, human TSLP-His; test: ELISA, human TSLP-His coated, antibody titrated, anti-human Fc-HRP
# human TSLP-His [12] = target: T2, human TSLP-His; test: cell-based or functional assay; remark: listed apart in the source
# [13] = target: T1, monkey TSLP-His (cynomolgus monkey, …); test: BLI (Fortebio), antibody on ProA sensor, monkey TSLP 1.5625-100 nM, 1:1 model
# From the text: as §3
binder,measurement,setting,value
"chimeric antibody 43B1A8 (antibody, V domains shown, Fully human variable regions with rat constant region (rat Fc)) VH: QMQLVESGGGAVQPGRSLRLSCAASGFTFRSYDMHWVRQAPGKGLEWVAVIWYDGSNENYADSVKGRFTTSRDNSKNTLFLQMNSLRAEDTAVYYCARSPLWYGEPDDAFDIWGQGTLVTVSS VL: EIVMTQSPATLSVSPGERATLSCRASQSVSSNLAWYQQKPGQAPRLLISGASTRATGIPARFSGSGSGTDFTLTISSLRSEDFAVYYCQHYNNWPLTFGGGTKVEIK",hTSLP binding (OD450),human TSLP-His [1],1.92 OD450
same,hTSLP/hIL7Rα-hTSLPR-hFc inhibition rate (%),human TSLP-His [2],80.7%
same,IC50,human TSLP-His [3],1.33 nM
same,EC50,human TSLP-His [4],0.115 nM
same,EC50,[5],0.568 nM
same,"EC50, blocking human TSLP-induced proliferation of Ba/F3-hTSLPR-hIL7Rα cells (CCK8)",human TSLP-His [6],0.1 nM
same,cTSLP binding (OD450),[7],1.11 OD450
"chimeric antibody 25A5C5 (antibody, V domains shown, From hybridoma of H2L2 mice: fully human variable regions with rat constant region (rat Fc)) VH: EVQLVESGGGLVQPGGSLRLSCAASRFTFSRYWMNWVRQAPGKGLEWVANIKQDGNEKYYVDSVKGRFTISRDNAKNSLYLQMNSLRAEDTAVYYCARDRVVGAPDTFDIWGQGTMVTVSS VL: not shown",hTSLP binding (OD450),human TSLP-His [1],2.4 OD450
same,hTSLP/hIL7Rα-hTSLPR-hFc inhibition rate (%),human TSLP-His [2],95.9%
same,IC50,human TSLP-His [3],0.89 nM
same,EC50,human TSLP-His [4],0.208 nM
same,"EC50, blocking human TSLP-induced proliferation of Ba/F3-hTSLPR-hIL7Rα cells (CCK8)",human TSLP-His [6],0.11 nM
"recombinant fully human antibody 25A5C5-hIgG (antibody, V domains shown) VH: EVQLVESGGGLVQPGGSLRLSCAASRFTFSRYWMNWVRQAPGKGLEWVANIKQDGNEKYYVDSVKGRFTISRDNAKNSLYLQMNSLRAEDTAVYYCARDRVVGAPDTFDIWGQGTMVTVSS VL: not shown",Kd,human TSLP-His [8],0.558 nM
same,"hTSLP EC50, inhibition of the proliferation of Ba/F3-hTSLPR-hIL7Rα cells",human TSLP-His [9],0.044 nM
same,binding result,[10],no binding
same,EC50,human TSLP-His [11],1.45 nM
"recombinant fully human antibody 90H3H11-hIgG (antibody, V domains shown) VH: QVQLVESGGGVVQPGRSLRLSCAASGFTISNHDIHWVRQAPGKGLEWVTLIWYDGSNQYYADSVKGRFTISRDNSKNTVYLQMNSLRAEDTAVYYCARDDYADYVYFHHWGQGTLVTVSS VL: DIQMTQSPSSLSASVGDRVTITCRASQNINSYLNWYRQKPGKAPELLIYAASSLQSGVPSRFSGSGSGTDFTLTISSLQPEDFATYYCQQSYSTPYTFGQGTELEIKR",Kd,human TSLP-His [8],0.604 nM
same,"EC50, inhibition of human TSLP-induced PBMC secretion of TARC",human TSLP-His [12],0.42 nM
same,"hTSLP EC50, inhibition of the proliferation of Ba/F3-hTSLPR-hIL7Rα cells",human TSLP-His [9],0.05 nM
same,EC50,human TSLP-His [11],1.36 nM
"chimeric antibody 90H3H11 (antibody, V domains shown, Fully human variable regions with rat constant region (rat Fc)) VH: QVQLVESGGGVVQPGRSLRLSCAASGFTISNHDIHWVRQAPGKGLEWVTLIWYDGSNQYYADSVKGRFTISRDNSKNTVYLQMNSLRAEDTAVYYCARDDYADYVYFHHWGQGTLVTVSS VL: DIQMTQSPSSLSASVGDRVTITCRASQNINSYLNWYRQKPGKAPELLIYAASSLQSGVPSRFSGSGSGTDFTLTISSLQPEDFATYYCQQSYSTPYTFGQGTELEIK",hTSLP binding (OD450),human TSLP-His [1],0.7 OD450
same,hTSLP/hIL7Rα-hTSLPR-hFc inhibition rate (%),human TSLP-His [2],87%
same,IC50,human TSLP-His [3],1.65 nM
same,EC50,human TSLP-His [4],0.139 nM
same,"EC50, blocking human TSLP-induced proliferation of Ba/F3-hTSLPR-hIL7Rα cells (CCK8)",human TSLP-His [6],0.25 nM
"chimeric antibody 37C2D10 (antibody, V domains shown, Fully human variable regions with rat constant region (rat Fc)) VH: QVQLQESGPGLVKPSGTLSLTCAVSGDSISSDNWWNWVRQPPGKGLQWIGEIFHSGRTNYNPSLKSRVTISVDMSKNQFSLKLSSVTAADTAVYFCARDAPNDYGDYGFFDYWGQGILVTVSS VL: DIVMTQSPLSLPVTPGEPASISCRSSQSLLHSNEYNYLDWYLQKPGQSPQLLIYLGSDRASGVPDRFSGSGSGTDFTLKISRVEAEDVGIYYCMQALQTPYTFGQGTKLEIK",hTSLP binding (OD450),human TSLP-His [1],1.1 OD450
same,hTSLP/hIL7Rα-hTSLPR-hFc inhibition rate (%),human TSLP-His [2],81%
same,IC50,human TSLP-His [3],0.51 nM
same,EC50,human TSLP-His [4],0.3 nM
same,EC50,[5],0.495 nM
same,"EC50, blocking human TSLP-induced proliferation of Ba/F3-hTSLPR-hIL7Rα cells (CCK8)",human TSLP-His [6],0.28 nM
same,cTSLP binding (OD450),[7],1.12 OD450
"recombinant fully human antibody 37C2D10-hIgG (antibody, V domains shown) VH: QVQLQESGPGLVKPSGTLSLTCAVSGDSISSDNWWNWVRQPPGKGLQWIGEIFHSGRTNYNPSLKSRVTISVDMSKNQFSLKLSSVTAADTAVYFCARDAPNDYGDYGFFDYWGQGILVTVSS VL: DIVMTQSPLSLPVTPGEPASISCRSSQSLLHSNEYNYLDWYLQKPGQSPQLLIYLGSDRASGVPDRFSGSGSGTDFTLKISRVEAEDVGIYYCMQALQTPYTFGQGTKLEIKR",Kd,human TSLP-His [8],1.76 nM
same,"hTSLP EC50, inhibition of the proliferation of Ba/F3-hTSLPR-hIL7Rα cells",human TSLP-His [9],0.06 nM
same,EC50,[10],0.17 nM
same,EC50,human TSLP-His [11],0.9 nM
same,Kd,[13],20.1 nM
"chimeric antibody 27C2B6 (antibody, V domains shown, Fully human variable regions with rat constant region (rat Fc)) VH: QVQLQESGPGLVKPSGTLSLTCAVSGDSISNYNWWSWVRQPPGKGLEWIGEIYHSGRTNYNPSLKSRVTLSVDTSKNQFSLRLSSVTAADTAVYYCARDAPSDYGDYGFFDHWGQGTLVIVSS VL: not shown",hTSLP binding (OD450),human TSLP-His [1],1.4 OD450
same,hTSLP/hIL7Rα-hTSLPR-hFc inhibition rate (%),human TSLP-His [2],69.8%
same,IC50,human TSLP-His [3],0.77 nM
same,EC50,human TSLP-His [4],0.221 nM
same,EC50,[5],0.216 nM
same,"EC50, blocking human TSLP-induced proliferation of Ba/F3-hTSLPR-hIL7Rα cells (CCK8)",human TSLP-His [6],1.22 nM
same,cTSLP binding (OD450),[7],1.11 OD450
"recombinant fully human antibody 27C2B6-hIgG (antibody, V domains shown) VH: QVQLQESGPGLVKPSGTLSLTCAVSGDSISNYNWWSWVRQPPGKGLEWIGEIYHSGRTNYNPSLKSRVTLSVDTSKNQFSLRLSSVTAADTAVYYCARDAPSDYGDYGFFDHWGQGTLVIVSS VL: not shown","hTSLP EC50, inhibition of the proliferation of Ba/F3-hTSLPR-hIL7Rα cells",human TSLP-His [9],0.064 nM
same,EC50,[10],0.18 nM
same,EC50,human TSLP-His [11],1.62 nM
